{"source": "patent US20180208675A1", "binders": {"B1": {"name": "mAb 2021 (antibody, human IgG4 S228P, kappa, V domains shown)", "VH": "EVQLVESGGGLVKPGGSLRLSCAASGFTFSNYAMSWVRQTPEKRLEWVATISRSGSYSYFPDSVQGRFTISRDNAKNSLYLQMNSLRAEDTAVYYCARLGGYDEGDAMDSWGQGTTVTVSS", "VL": "DIVMTQTPLSLSVTPGQPASISCKSSQSLLESDGKTYLNWYLQKPGQSPQLLIYLVSILDSGVPDRFSGSGSGTDFTLKISRVEAEDVGVYYCLQATHFPQTFGGGTKVEIKR"}, "B2": {"name": "Fab 0088-Fab 0089 conjugate 9002 (bispecific antibody)", "heavy 1": "EVQLVESGGGLVKPGGSLRLSCAASGFTFSNYAMSWVRQTPEKRLEWVATISRSGSYSYFPDSVQGRFTISRDNAKNSLYLQMNSLRAEDTAVYYCARLGGYDEGDAMDSWGQGTTVTVSSASTKGPSVFPLAPCSRSTSESTAALGCLVKDYFPEPVTVSWNSGALTSGVHTFPAVLQSSGLYSLSSVVTVPSSSLGTKTYTCNVDHKPSNTKVDKRVESKYGPPC", "light 1": "DIVMTQTPLSLSVTPGQPASISCKSSQSLLESDGKTYLNWYLQKPGQSPQLLIYLVSILDSGVPDRFSGSGSGTDFTLKISRVEAEDVGVYYCLQATHFPQTFGGGTKVEIKRTVAAPSVFIFPPSDEQLKSGTASVVCLLNNFYPREAKVQWKVDNALQSGNSQESVTEQDSKDSTYSLSSTLTLSKADYEKHKVYACEVTHQGLSSPVTKSFNRGEC", "heavy 2": "QVQLQQSGAELVKPGASVKLSCKASGYTFISYYMYWVKQRPGQGLEWIGEINPSNGDTNLNEKFKSKATLTVDKSSSTVYMQLSSLTSEDSAVYYCTRWDRFDGFVYWGQGTLVTVSAASTKGPSVFPLAPCSRSTSESTAALGCLVKDYFPEPVTVSWNSGALTSGVHTFPAVLQSSGLYSLSSVVTVPSSSLGTKTYTCNVDHKPSNTKVDKRVESKYGPPC", "light 2": "ETTVTQSPASLSMAIGGKVTIRCIISTNIDDDINWYQQKPGEPPKLLISEGNTLRPGVPSRFSSSGYGTDFVFTIENMLSEDVADYYCLQSDDLPYTFGGGTKLEIKRTVAAPSVFIFPPSDEQLKSGTASVVCLLNNFYPREAKVQWKVDNALQSGNSQESVTEQDSKDSTYSLSSTLTLSKADYEKHKVYACEVTHQGLSSPVTKSFNRGEC", "modifications": "C-terminal cysteine coupled through the bis-maleimide linker to the Fab 0088 heavy chain; C-terminal cysteine coupled through 1,16-N,N'-bis(maleimido)-4,13-diaza-7,10-dioxa-3,14-dioxohexadecane to the C-terminal cysteine of the Fab 0089 heavy chain"}, "B3": {"name": "Fab 0088 (Fab fragment of mAb 2021) (Fab, V domains shown)", "VH": "EVQLVESGGGLVKPGGSLRLSCAASGFTFSNYAMSWVRQTPEKRLEWVATISRSGSYSYFPDSVQGRFTISRDNAKNSLYLQMNSLRAEDTAVYYCARLGGYDEGDAMDSWGQGTTVTVSS", "VL": "DIVMTQTPLSLSVTPGQPASISCKSSQSLLESDGKTYLNWYLQKPGQSPQLLIYLVSILDSGVPDRFSGSGSGTDFTLKISRVEAEDVGVYYCLQATHFPQTFGGGTKVEIKR"}, "B4": {"name": "Fab 0094 (Fab fragment of mAb 2007) (Fab, V domains shown)", "VH": "EVQLVESGGGLVKPGGSLRLSCAASGFTFSNYAMSWVRQAPGKGLEWVSTISRSGSYSYYPDSVKGRFTISRDNAKNSLYLQMNSLRAEDTAVYYCARLGGYDEGDAMDSWGQGTTVTVSS", "VL": "DIVMTQTPLSLSVTPGQPASISCKSSQSLLESDGKTYLNWYLQKPGQSPQLLIYLVSILDSGVPDRFSGSGSGTDFTLKISRVEAEDVGVYYCLQATHFPQTFGGGTKVEIKR"}, "B5": {"name": "Fab 0313 (Fab fragment of mAb 2000) (Fab, V domains shown)", "VH": "EVQLVESGGGLVKPGGSLRLSCAASGFTFSNYAMSWVRQAPGKGLEWVSTISRSGSYSYYADSVKGRFTISRDNAKNSLYLQMNSLRAEDTAVYYCARLGGYDEGDAMDSWGQGTTVTVSS", "VL": "DIVMTQTPLSLSVTPGQPASISCKSSQSLLESDGKTYLNWYLQKPGQSPQLLIYLVSILDSGVPDRFSGSGSGTDFTLKISRVEAEDVGVYYCLQATHFPQTFGGGTKVEIKR"}, "B6": {"name": "Fab 0094-Fab 0089 conjugate 9004 (bispecific antibody)", "heavy 1": "EVQLVESGGGLVKPGGSLRLSCAASGFTFSNYAMSWVRQAPGKGLEWVSTISRSGSYSYYPDSVKGRFTISRDNAKNSLYLQMNSLRAEDTAVYYCARLGGYDEGDAMDSWGQGTTVTVSSASTKGPSVFPLAPCSRSTSESTAALGCLVKDYFPEPVTVSWNSGALTSGVHTFPAVLQSSGLYSLSSVVTVPSSSLGTKTYTCNVDHKPSNTKVDKRVESKYGPPC", "light 1": "DIVMTQTPLSLSVTPGQPASISCKSSQSLLESDGKTYLNWYLQKPGQSPQLLIYLVSILDSGVPDRFSGSGSGTDFTLKISRVEAEDVGVYYCLQATHFPQTFGGGTKVEIKRTVAAPSVFIFPPSDEQLKSGTASVVCLLNNFYPREAKVQWKVDNALQSGNSQESVTEQDSKDSTYSLSSTLTLSKADYEKHKVYACEVTHQGLSSPVTKSFNRGEC", "heavy 2": "QVQLQQSGAELVKPGASVKLSCKASGYTFISYYMYWVKQRPGQGLEWIGEINPSNGDTNLNEKFKSKATLTVDKSSSTVYMQLSSLTSEDSAVYYCTRWDRFDGFVYWGQGTLVTVSAASTKGPSVFPLAPCSRSTSESTAALGCLVKDYFPEPVTVSWNSGALTSGVHTFPAVLQSSGLYSLSSVVTVPSSSLGTKTYTCNVDHKPSNTKVDKRVESKYGPPC", "light 2": "ETTVTQSPASLSMAIGGKVTIRCIISTNIDDDINWYQQKPGEPPKLLISEGNTLRPGVPSRFSSSGYGTDFVFTIENMLSEDVADYYCLQSDDLPYTFGGGTKLEIKRTVAAPSVFIFPPSDEQLKSGTASVVCLLNNFYPREAKVQWKVDNALQSGNSQESVTEQDSKDSTYSLSSTLTLSKADYEKHKVYACEVTHQGLSSPVTKSFNRGEC", "modifications": "C-terminal cysteine coupled through the bis-maleimide linker to the Fab 0094 heavy chain; C-terminal cysteine coupled through 1,16-N,N'-bis(maleimido)-4,13-diaza-7,10-dioxa-3,14-dioxohexadecane to the C-terminal cysteine of the Fab 0089 heavy chain"}}, "key": {"[1]": {"target": "EA.hy926 cell surface associated TFPI (human) (UniProt P10646)", "test": "flow cytometry on EA.hy926 cells, APC anti-human IgG secondary, median fluorescence intensity"}, "[2]": {"target": "EA.hy926 cell surface associated TFPI (human) (UniProt P10646)"}, "[3]": {"target": "EA.hy926 cell surface associated TFPI (human) (UniProt P10646)", "remark": "listed apart in the source"}}, "note": "Like-named read-outs stand apart in the source and are kept apart here."}
{"binder": "B1", "values": [{"measurement": "EC50", "setting": "[1]", "value": 0.11, "unit": "nM"}, {"measurement": "EC50 (read off the curve)", "setting": "[2]", "value": 1, "unit": "nM"}]}
{"binder": "B2", "values": [{"measurement": "EC50", "setting": "[1]", "value": 0.33, "unit": "nM"}, {"measurement": "EC50 (read off the curve)", "setting": "[3]", "value": 2, "unit": "nM"}]}
{"binder": "B3", "values": [{"measurement": "EC50", "setting": "[1]", "value": 0.31, "unit": "nM"}]}
{"binder": "B4", "values": [{"measurement": "EC50", "setting": "[1]", "value": 3.8, "unit": "nM"}]}
{"binder": "B5", "values": [{"measurement": "EC50", "setting": "[1]", "value": 25.9, "unit": "nM"}]}
{"binder": "B6", "values": [{"measurement": "EC50", "setting": "[1]", "value": 6.9, "unit": "nM"}]}
